Patent US20100291097A1 (AC IMMUNE S A, published 2010)

T1: Aβ17-40 peptide, biotinylated (Anaspec) (biotinylated (position not given))
T1 peptide: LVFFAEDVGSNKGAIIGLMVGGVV


Key:
[1] = target: T2, Aβ1-42 peptide, biotinylated (Anaspec) (biotinylated (position not given)); test: ELISA, biotin-peptide on streptavidin, Ab 10 µg/ml; mean of 2, background subtracted
T2 construct: also called 1-42A
Excerpt: (§1) The peptides in the peptide library were composed of 8, 9 or 10-mer aa peptides. A biotinylated complete Aβ₁₋₄₂ peptide (human sequence) was used as positive control (Bachem, Bubendorf, Switzerland). In addition, longer peptides covering Aβ1-28, Aβ17-40, Aβ1-40 and Aβ₁₋₄₂ were used to define the broader region to which these antibodies may bind. These 4 peptides were also biotinlyated (manufactured by Anaspec and purchased from ANAWA Trading SA, Switzerland). Epitope mapping was done according to the manufacturer's (Mimotopes) instructions. Briefly, Streptavidin coated plates (NUNC, Roskilde, Denmark) were blocked with 0.1% BSA in PBS overnight at 4° C. After washing with PBS-0.05% Tween 20, plates were coated for 1 hour at RT with the different peptides from the library, diluted in 0.1% BSA, 0.1% Sodium Azide in PBS to a final concentration of 10 μM. […] Plates were washed again and incubated with alkaline phosphatase conjugated goat anti mouse IgG (Jackson Immunresearch West Grove, Pa., USA) for 1 h at RT. After final washing, plates were incubated with phosphatase substrate (pNPP, Sigma-Aldrich, St Louis, Mo., USA) and read after 3 hours of incubation at 405 nm using an ELISA plate reader.

[2] = target: T3, Aβ1-40 peptide, biotinylated (Anaspec) (biotinylated (position not given)); test: as above
T3 construct: also called Ab1-40
Excerpt: as §1

[3] = target: T1, Aβ17-40 peptide, biotinylated (Anaspec); test: as above
Excerpt: as §1

[4] = target: T4, Biotinylated complete Aβ1-42 peptide (human sequence, Bachem) (human, biotinylated (position not given)); test: as above
T4 construct: also called 1-42B; Aβ1-42 (positive control of the peptide library ELISA)
Excerpt: as §1

[5] = target: Aβ1-42 peptide; test: cell-based or functional assay
[6] = target: T1, Aβ17-40 peptide, biotinylated (Anaspec); test: ELISA on longer biotinylated Aβ peptides
Excerpt: as §1

[7] = target: T4, Biotinylated complete Aβ1-42 peptide …; test: peptide library ELISA, positive control, Ab 10 µg/ml
Excerpt: as §1

Aβ1-42 peptide, sequence (peptide, as listed by the source): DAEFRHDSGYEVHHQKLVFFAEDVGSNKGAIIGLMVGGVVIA
T4 sequence (peptide, as listed by the source): as above
T2 sequence (peptide, as listed by the source): as above

| O.D. [1] | O.D. [2] | O.D. [3] | O.D. [4] | disaggregation of pre-aggregated Aβ1-42, thioflavin T assay, molar ratio 1:10 [5] | disaggregation of pre-aggregated Aβ1-42, thioflavin T assay, molar ratio 1:100 [5] | inhibition of Aβ1-42 aggregation, thioflavin T assay, molar ratio 1:10 [5] | inhibition of Aβ1-42 aggregation, thioflavin T assay, molar ratio 1:100 [5] | binding result [6] | O.D. [7] | Binder |
| --- | --- | --- | --- | --- | --- | --- | --- | --- | --- | --- |
| 0.78 O.D. | 1.02 O.D. | 0.02 O.D. | 1.54 O.D. | 52% | 22% | 69% | 34% | no binding (tested: 10 µg/ml) |  | ACI-11-Ab-9 monoclonal antibody (antibody, V domains shown, Mouse monoclonal IgG from hybridoma FG1F9E4 (DSM ACC2845); also called clone FG1F9E4) VH: QVQLQQSDAELVKPGASVKISCKVSGYTFTDHTIHWMKQRPEQGLEWIGYIYPRDGSTKYNEKFKGKATLTADKSSSTAYMQLNSLTSEDSAVYFCARDYGYAFDYWGQGTTLTVSS VL: QAVVTQESALTTSPGGTVILTCRSSTGAVTTSNYANWVQEKPDHLFTGLIGGTSNRAPGVPVRFSGSLIGDKAALTITGAQTEDDAMYFCALWYSTHYVFGGGTKVTVL |
| 0.44 O.D. | 0.62 O.D. | -0.02 O.D. | 1.07 O.D. | 54% | 18% | 66% | 30% |  | 0.69 O.D. | ACI-12-Ab-11 monoclonal antibody (antibody, V domains shown, Mouse monoclonal IgG from hybridoma FK2A6A6 (DSM ACC2846); also called ACI-12-Ab-11 (clone: FK2A6A6); clone FK2A6A6) VH: QVQLQQSDAELVKPGASVKISCKVSGYTFTDHTIHWMKQRPEQGLEWIGYIYPRDGSTKYNEKFKGKATLTADKSSSTAYMQLNSLTSEDSAVYFCARDYGYAFDYWGQGTTLTVSS VL: QAVVTQESALTTSPGGTVILTCRSSTGAVTTSNYANWVQEKPDHLFTGLIGGTSNRAPGVPVRFSGSLIGDKAALTITGAQTEDDAMYFCALWYSTHYVFGGGTKVTVL |
